Data: patent US20230220084A1 (DRAGONFLY THERAPEUTICS, published 2023)

T1: hCLEC12A-His fusion protein (human, UniProt Q5QGZ9 65-265, limits assumed)
T1 construct: Recombinant His-tagged human CLEC12A; also called Human CLEC12A-His; recombinant human CLEC12A
T1 sequence (looked up): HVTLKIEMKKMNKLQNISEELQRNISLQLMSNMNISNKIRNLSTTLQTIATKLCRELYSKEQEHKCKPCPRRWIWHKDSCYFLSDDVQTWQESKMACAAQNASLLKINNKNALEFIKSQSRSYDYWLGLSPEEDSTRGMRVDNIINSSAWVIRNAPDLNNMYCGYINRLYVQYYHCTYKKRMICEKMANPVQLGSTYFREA


Assays:
[1] = target: T1, hCLEC12A-His fusion protein; test: yeast display flow cytometry with hCLEC12A-his (PE-A against FITC-A)
[2] = target: T1, hCLEC12A-His fusion protein; test: SPR 37 C, two-state fit, kd1; kd1 of two-state fit, 37 C
[3] = target: T1, hCLEC12A-His fusion protein; test: SPR 37 C, two-state fit, ka1; ka1 of two-state fit, 37 C
[4] = target: T1, hCLEC12A-His fusion protein; test: SPR 37 C, two-state fit, kd2
[5] = target: T1, hCLEC12A-His fusion protein; test: SPR 37 C, two-state fit; overall KD of two-state fit, 37 C

Row | binding result [1] | koff [2] [s⁻¹] | kon [3] [M⁻¹ s⁻¹] | koff [4] [s⁻¹] | Kd [5] [nM] | Binder
1 | binds |  |  |  |  | parent scFv (YDYDDSLDY) (SEQ ID NO:5) of F3′-1602, yeast display (scFv) scFv: QLQLQESGPGLVKPSETLSLTCTVSGFSLTNYGLHWIRQPPGKCLEWIGVIWSGGKTDYNPSLKSRVTISKDTSKNQFSLKLSSVQAADTAVYYCAKYDYDDSLDYWGQGTLVTVSSGGGGSGGGGSGGGGSGGGGSDIQMTQSPSSLSASVGDRVTITCHASQNINFWLSWYQQKPGKAPKLLIYEASNLHTGVPSRFSGSGSGTRFTLTISSLQPEDIATYYCQQSHSYPLTFGCGTKLEIK
2 |  | 0.0157 | 1.63e+06 | 0.000949 | 2.41 | AB0053 (bispecific antibody) QLQLQESGPGLVKPSETLSLTCTVSGFSLTNYGLHWIRQPPGKCLEWIGVIWSGGKTDYNPSLKSRVTISKDTSKNQFSLKLSSVQAADTAVYYCAKYDYDDALDYWGQGTLVTVSSGGGGSGGGGSGGGGSGGGGSDIQMTQSPSSLSASVGDRVTITCHASQNINFWLSWYQQKPGKAPKLLIYEASNLHTGVPSRFSGSGSGTRFTLTISSLQPEDIATYYCQQSHSYPLTFGCGTKLEIK
